Measurements published in patent US20130243795A1 (Janssen / Centocor, published 2013).
Substitutions are numbered along the chain they refer to.

B1: F18 (Fab, V domains shown)
VH: EVQLLESGGGLVQPGGSLRLSCAASGFTFSSYTMSWVRQAPGKGLEWVSAIDHGGGRTYYPDSVKGRFTISRDNSKNTLYLQMNSLRAEDTAVYYCARHRGNPFDYWGQGTLVTVSS
VL: DIQMTQSPSSLSASVGDRVTITCRASKSVSTSGYSFMHWYQQKPGKAPKLLIYLASNLESGVPSRFSGSGSGTDFTLTISSLQPEDFATYYCQHSRELPWTFGQGTKVEIK
notes: also called H40/L40
B2: F295 (Fab, V domains shown)
VH: B1 VH with A50Y, D52S, H53S, R57N
VL: B1 VL with L54V, S56D, N57R, L58V, S60V
notes: also called H39/L176
B3: F19 (Fab, V domains shown)
VH: B1 VH with Y59W
VL: B1 VL
notes: also called H41/L40
B4: F243 (Fab, V domains shown)
VH: B1 VH with A50Y, D52S, H53S, R57N
VL: B1 VL with L54V, A55G, N57R, L58M, E59A, S60F
notes: also called H39/L124
B5: F256 (Fab, V domains shown)
VH: B1 VH with A50Y, D52S, H53S, R57N
VL: B1 VL with L54V, A55G, N57R, E59D, S60Y
notes: also called H39/L137
B6: F279 (Fab, V domains shown)
VH: B1 VH with A50Y, D52S, H53S, R57N
VL: B1 VL with T31Y, S32V, G33R, Y34W
notes: also called H39/L160
B7: F291 (Fab, V domains shown)
VH: B1 VH with A50Y, D52S, H53S, R57N
VL: B1 VL with T31H, S32I, G33R, Y34W
notes: also called H39/L172
B8: F292 (Fab, V domains shown)
VH: B1 VH with A50Y, D52S, H53S, R57N
VL: B1 VL with T31H, S32V, G33R, Y34W
notes: also called H39/L173
B9: F57 (Fab, V domains shown)
VH: B1 VH with R57Q, Y59L
VL: B1 VL
notes: also called H79/L40
B10: M159 (antibody, human IgG4, V domains shown)
VH: QVQLVQSGAEVKKPGASVKVSCKASGYAFSSSWMNWVRQAPGQGLEWMGRIYPGDGDTNYNGKFKGRVTMTRDTSTSTVYMELSSLRSEDTAVYYCARSDYYGDYGFAYWGQGTLVTVSS
VL: DIQMTQSPSSLSASVGDRVTITCKASQSVDYAGDSYMNWYQQKPGKAPKLLIYAASNLESGVPSRFSGSGSGTDFTLTISSLQPEDFATYYCQQSNEDPYTFGQGTKVEIK
notes: also called H25,L220; parental mAb
B11: M162 (antibody, human IgG4, V domains shown)
VH: B10 VH with P53S
VL: B10 VL with T20A, A32Y, G33N, D34S, Y36F
notes: also called H196,L224
B12: M151 (antibody, human IgG4, V domains shown)
VH: B10 VH
VL: B10 VL with T20A, A32Y, G33N, D34S, Y36F
notes: also called H25,L224
B13: M153 (antibody, human IgG4, V domains shown)
VH: B10 VH
VL: B10 VL with A32V, D34T, Y36F
notes: also called H25,L222
B14: M164 (antibody, human IgG4, V domains shown)
VH: B10 VH with P53S
VL: B10 VL with A32V, D34T, Y36F
notes: also called H196,L222
B15: M152 (antibody, human IgG4, V domains shown)
VH: B10 VH
VL: B10 VL with A32W, G33S, Y36F
notes: also called H25,L223
B16: M163 (antibody, human IgG4, V domains shown)
VH: B10 VH with P53S
VL: B10 VL with A32W, G33S, Y36F
notes: also called H196,L223
B17: M161 (antibody, human IgG4, V domains shown)
VH: B10 VH with P53S
VL: B10 VL with A32F, Y36L
notes: also called H196,L218
B18: M154 (antibody, human IgG4, V domains shown)
VH: B10 VH
VL: B10 VL with A32F, G33R, D34T, Y36F
notes: also called H25,L221
B19: M150 (antibody, human IgG4, V domains shown)
VH: B10 VH
VL: B10 VL with A32F, Y36L
notes: also called H25,L218
B20: M165 (antibody, human IgG4, V domains shown)
VH: B10 VH with P53S
VL: B10 VL with A32F, G33R, D34T, Y36F
notes: also called H196,L221
B21: M69-derived Fab with VH H239 (Fab, V domains shown)
VH: EVQLVQSGAEVKKPGESLKISCKGSGYAFSSSWMNWVRQMPGKGLEWMGRIYAGDGDTNYSPSFQGQVTISADKSISTAYLQWSSLKASDTAMYYCARSDYYGDYGFAYWGQGTLVTVSS
VL: DIVMTQSPDSLAVSLGERATINCKASQSVDYAGDSYMNWYQQKPGQPPKLLIYAASNLESGVPDRFSGSGSGTDFTLTISSLQAEDVAVYYCQQSNEDPYTFGQGTKLEIK
notes: clone of library C27H28L2; pairing with parent L35 inferred
B22: M69-derived Fab with VH H245 (Fab, V domains shown)
VH: B21 VH with G8V, A53S, G54R
VL: B21 VL
notes: as for B21
B23: M69-derived Fab with VL L261 (Fab, V domains shown)
VH: B21 VH with A53P
VL: B21 VL with D34S, Y36F, A54E
notes: clone of library C27L35L2; pairing with parent H28 inferred
B24: M69-derived Fab with VL L260 (Fab, V domains shown)
VH: B21 VH with A53P
VL: B21 VL with Y31W, D34H, Y36W, A54T
notes: as for B23
B25: M69-derived Fab with VH H244 (Fab, V domains shown)
VH: B21 VH with A53S
VL: B21 VL
notes: as for B21
B26: M69-derived Fab with VH H238 (Fab, V domains shown)
VH: B21 VH with A53V
VL: B21 VL
notes: as for B21
B27: M69-derived Fab with VH H242 (Fab, V domains shown)
VH: B21 VH with G54N
VL: B21 VL
notes: as for B21
B28: M69-derived Fab with VL L257 (Fab, V domains shown)
VH: B21 VH with A53P
VL: B21 VL with Y36W, A54T, Q83L
notes: as for B23
B29: M69-derived Fab with VH H241 (Fab, V domains shown)
VH: B21 VH with A53G, G54R
VL: B21 VL
notes: as for B21
B30: M69-derived Fab with VH H237 (Fab, V domains shown)
VH: B21 VH with Y52F, A53V, G54R
VL: B21 VL
notes: as for B21
B31: M69-derived Fab with VH H243 (Fab, V domains shown)
VH: B21 VH with A53G
VL: B21 VL
notes: as for B21
B32: M69-derived Fab with VH H236 (Fab, V domains shown)
VH: B21 VH with A53P, S99A, A108G
VL: B21 VL
notes: clone of library C27H28L3; pairing with the parent L35 light chain is inferred from the library design
B33: M69-derived Fab with VL L256 (Fab, V domains shown)
VH: B21 VH with A53P
VL: B21 VL with Y36W, A54V
notes: as for B23
B34: M69-derived Fab with VH H240 (Fab, V domains shown)
VH: B21 VH with G54R
VL: B21 VL
notes: as for B21
B35: M69-derived Fab with VL L255 (Fab, V domains shown)
VH: B21 VH with A53P
VL: B21 VL with Y36F
notes: clone recovered from the CDR-L1 libraries of L35; pairing with the parent H28 heavy chain inferred
B36: M673 (antibody, V domains shown)
VH: B10 VH with P53S, G56A, G62Q
VL: B10 VL with G33H, D34E, Y36F
notes: isotype not restated (path 2); also called H256,L217
B37: M672 (antibody, V domains shown)
VH: B10 VH with P53S, G56A, N61A, G62Q
VL: B10 VL with G33H, D34E, Y36F
notes: isotype not restated (path 2); also called H255,L217
B38: M670 (antibody, V domains shown)
VH: B21 VH with A53S, G56A, S61A, P62Q, S63K, Q65K
VL: B10 VL with D34E, Y36F
notes: isotype not restated (path 2); also called H257,L266
B39: M669 (antibody, V domains shown)
VH: B10 VH with P53S, G56A, G62Q
VL: B10 VL with D34E, Y36F
notes: isotype not restated (path 2); also called H256,L266

target: T1, Human CD27 ECD (ECD 1-173, His6) (human, UniProt P26842 21-193, biotinylated on amine residues (NHS-ester) where used biotinylated); test: single point Fab ELISA
T1 construct: also called biotinylated human CD27 ECD

Row | Binder | binding result
1 | B1 | binds
2 | B2 | binds
3 | B3 | binds
4 | B4 | binds
5 | B5 | binds
6 | B6 | binds
7 | B7 | binds
8 | B8 | binds
9 | B9 | binds

Target: T2, Human CD27 ECD truncated (ECD 1-121, cleavage site, His6) (human)
T2 construct: also called human CD27 ECD with His Tag; CD27-His
T2 chain: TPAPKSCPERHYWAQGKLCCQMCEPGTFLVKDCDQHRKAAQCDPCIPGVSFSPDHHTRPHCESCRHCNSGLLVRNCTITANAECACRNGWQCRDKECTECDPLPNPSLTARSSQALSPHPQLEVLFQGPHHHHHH
Test: ProteOn SPR, culture supernatants

Row | Binder | Kd [nM]
10 | B10 | 2.23
11 | B11 | 0.43
12 | B12 | 1.07
13 | B13 | 1.41
14 | B14 | 0.27
15 | B15 | 1.54
16 | B16 | 0.3
17 | B17 | 1.34
18 | B18 | 1.56
19 | B19 | 4.04
20 | B20 | 0.18

target: T1, Human CD27 ECD (ECD 1-173, His6); test: Fab ELISA; Fab captured by anti-Fd, biotinylated CD27 ECD at 0.2 nM

Row | Binder | percent binding of the parent [%]
21 | B21 | ≥ 100
22 | B22 | ≥ 100
23 | B23 | ≥ 100
24 | B24 | ≥ 100
25 | B25 | ≥ 100
26 | B26 | ≥ 100
27 | B27 | ≥ 100
28 | B28 | ≥ 100
29 | B29 | ≥ 100
30 | B30 | ≥ 100
31 | B31 | ≥ 100
32 | B32 | ≥ 100
33 | B33 | ≥ 100
34 | B34 | ≥ 100
35 | B35 | ≥ 100

Target: T2, Human CD27 ECD truncated (ECD 1-121, …)
Test: ProteOn SPR, purified mAb, CD27-His

Row | Binder | Kd [nM] | koff [s⁻¹] | kon [M⁻¹ s⁻¹]
36 | B36 | 0.1 | 0.000189 | 1.89e+06
37 | B37 | 0.144 | 0.000264 | 1.83e+06
38 | B38 | 0.065 | 0.000113 | 1.73e+06
39 | B39 | 0.058 | 0.000145 | 2.49e+06
